Reference: IntAct's records for PubMed 22904282

B1: DNA-directed RNA polymerase subunit beta (Mycobacterium tuberculosis (strain ATCC 25618 / P9WGY9 (parent)
chain: MLEGCILADSRQSKTAASPSPSRPQSSSNNSVPGAPNRVSFAKLREPLEVPGLLDVQTDSFEWLIGSPRWRESAAERGDVNPVGGLEEVLYELSPIEDFSGSMSLSFSDPRFDDVKAPVDECKDKDMTYAAPLFVTAEFINNNTGEIKSQTVFMGDFPMMTEKGTFIINGTERVVVSQLVRSPGVYFDETIDKSTDKTLHSVKVIPSRGAWLEFDVDKRDTVGVRIDRKRRQPVTVLLKALGWTSEQIVERFGFSEIMRSTLEKDNTVGTDEALLDIYRKLRPGEPPTKESAQTLLENLFFKEKRYDLARVGRYKVNKKLGLHVGEPITSSTLTEEDVVATIEYLVRLHEGQTTMTVPGGVEVPVETDDIDHFGNRRLRTVGELIQNQIRVGMSRMERVVRERMTTQDVEAITPQTLINIRPVVAAIKEFFGTSQLSQFMDQNNPLSGLTHKRRLSALGPGGLSRERAGLEVRDVHPSHYGRMCPIETPEGPNIGLIGSLSVYARVNPFGFIETPYRKVVDGVVSDEIVYLTADEEDRHVVAQANSPIDADGRFVEPRVLVRRKAGEVEYVPSSEVDYMDVSPRQMVSVATAMIPFLEHDDANRALMGANMQRQAVPLVRSEAPLVGTGMELRAAIDAGDVVVAEESGVIEEVSADYITVMHDNGTRRTYRMRKFARSNHGTCANQCPIVDAGDRVEAGQVIADGPCTDDGEMALGKNLLVAIMPWEGHNYEDAIILSNRLVEEDVLTSIHIEEHEIDARDTKLGAEEITRDIPNISDEVLADLDERGIVRIGAEVRDGDILVGKVTPKGETELTPEERLLRAIFGEKAREVRDTSLKVPHGESGKVIGIRVFSREDEDELPAGVNELVRVYVAQKRKISDGDKLAGRHGNKGVIGKILPVEDMPFLADGTPVDIILNTHGVPRRMNIGQILETHLGWCAHSGWKVDAAKGVPDWAARLPDELLEAQPNAIVSTPVFDGAQEAELQGLLSCTLPNRDGDVLVDADGKAMLFDGRSGEPFPYPVTVGYMYIMKLHHLVDDKIHARSTGPYSMITQQPLGGKAQFGGQRFGEMECWAMQAYGAAYTLQELLTIKSDDTVGRVKVYEAIVKGENIPEPGIPESFKVLLKELQSLCLNVEVLSSDGAAIELREGEDEDLERAAANLGINLSRNESASVEDLA
partner: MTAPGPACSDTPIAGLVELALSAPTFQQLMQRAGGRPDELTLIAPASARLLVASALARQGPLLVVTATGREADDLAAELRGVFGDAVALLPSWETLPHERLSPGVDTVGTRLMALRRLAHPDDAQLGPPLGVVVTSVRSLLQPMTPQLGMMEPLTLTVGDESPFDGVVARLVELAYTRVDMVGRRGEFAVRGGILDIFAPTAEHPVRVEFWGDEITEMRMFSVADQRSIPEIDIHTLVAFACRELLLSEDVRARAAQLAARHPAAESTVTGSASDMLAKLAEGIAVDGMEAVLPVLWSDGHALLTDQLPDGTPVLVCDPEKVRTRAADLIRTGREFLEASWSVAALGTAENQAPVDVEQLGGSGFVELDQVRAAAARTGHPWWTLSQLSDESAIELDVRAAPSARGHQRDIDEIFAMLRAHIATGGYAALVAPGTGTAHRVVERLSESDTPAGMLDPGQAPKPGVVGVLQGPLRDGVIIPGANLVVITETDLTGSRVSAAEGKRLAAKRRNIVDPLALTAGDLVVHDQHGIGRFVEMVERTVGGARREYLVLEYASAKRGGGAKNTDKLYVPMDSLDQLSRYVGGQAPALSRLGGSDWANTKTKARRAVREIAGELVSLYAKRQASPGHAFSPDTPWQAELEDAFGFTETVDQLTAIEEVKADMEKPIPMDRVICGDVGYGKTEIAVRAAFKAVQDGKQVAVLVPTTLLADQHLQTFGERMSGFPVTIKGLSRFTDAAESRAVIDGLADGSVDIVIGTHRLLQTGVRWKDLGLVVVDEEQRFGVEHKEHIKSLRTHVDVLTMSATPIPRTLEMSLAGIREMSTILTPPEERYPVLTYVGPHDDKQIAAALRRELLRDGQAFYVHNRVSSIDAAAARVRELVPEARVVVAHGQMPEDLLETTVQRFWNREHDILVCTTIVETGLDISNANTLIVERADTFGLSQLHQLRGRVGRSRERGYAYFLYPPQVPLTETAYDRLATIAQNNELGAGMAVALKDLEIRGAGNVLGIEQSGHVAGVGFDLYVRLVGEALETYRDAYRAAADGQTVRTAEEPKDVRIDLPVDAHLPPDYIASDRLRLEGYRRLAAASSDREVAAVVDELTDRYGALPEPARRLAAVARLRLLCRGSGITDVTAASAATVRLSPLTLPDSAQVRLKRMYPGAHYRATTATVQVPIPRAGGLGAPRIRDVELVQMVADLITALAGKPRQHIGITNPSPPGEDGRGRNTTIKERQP
B2: DNA-directed RNA polymerase subunit beta (Mycobacterium tuberculosis (strain ATCC 25618 / P9WGY9 (parent)
chain: B1 chain
B3: RNA polymerase-binding transcription factor CarD (Mycobacterium tuberculosis (strain ATCC 25618 / P9WJG3 (parent)
chain: MIFKVGDTVVYPHHGAALVEAIETRTIKGEQKEYLVLKVAQGDLTVRVPAENAEYVGVRDVVGQEGLDKVFQVLRAPHTEEPTNWSRRYKANLEKLASGDVNKVAEVVRDLWRRDQERGLSAGEKRMLAKARQILVGELALAESTDDAKAETILDEVLAAAS

Variants of: B1
Settings: with mfd_myctu mfd

Row | Variant | effect of a mutation on the interaction
1 | S149A | decreasing interaction strength
2 | I147A | disrupting interaction
3 | E138R | disrupting interaction

Variants of: B2
Settings: with card_myctu carD

Row | Variant | effect of a mutation on the interaction
4 | I147A | disrupting interaction
5 | S149A | decreasing interaction
6 | E138R | disrupting interaction

Variants of: B3
Settings: with rpob_myctu rpoB

Row | Variant | effect of a mutation on the interaction
7 | R25E | decreasing interaction strength
8 | R47E | decreasing interaction strength
